For assay [1], the target named is Human FRα ECD-Avi-His (human). The assay can be described thus: HTRF antigen binding assay; hybridoma supernatant at 25%, 1 nM biotinylated antigen.
The target in assay [2] is Cyno FRα ECD-Avi-His (cynomolgus monkey). The assay is described as above.
Sequence of Cyno FRα ECD-Avi-His (cynomolgus monkey) (chain, as listed by the source limits assumed): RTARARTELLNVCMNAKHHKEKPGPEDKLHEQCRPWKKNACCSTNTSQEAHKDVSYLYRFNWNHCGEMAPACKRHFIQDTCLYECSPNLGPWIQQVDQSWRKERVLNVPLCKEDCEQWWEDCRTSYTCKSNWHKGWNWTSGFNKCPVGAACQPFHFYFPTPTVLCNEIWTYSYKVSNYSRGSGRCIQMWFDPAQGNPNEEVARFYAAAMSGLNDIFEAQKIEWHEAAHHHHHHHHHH

Sequence of Human FRα ECD-Avi-His (human) (chain, as listed by the source limits assumed): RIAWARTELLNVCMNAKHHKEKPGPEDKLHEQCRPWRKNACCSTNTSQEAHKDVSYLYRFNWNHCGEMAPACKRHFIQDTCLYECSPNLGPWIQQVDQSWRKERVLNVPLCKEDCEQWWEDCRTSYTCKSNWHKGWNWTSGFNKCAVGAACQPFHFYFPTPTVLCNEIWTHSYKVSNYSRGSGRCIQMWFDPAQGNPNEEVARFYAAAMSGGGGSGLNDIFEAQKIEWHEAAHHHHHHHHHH

B1: AB1370035 (hybridoma IgG) (antibody, V domains shown)
VH: QVQLQQSGPGLVKPSQTLSLTCAISGDSVSSNSAAWNWIRQSPSRGLEWLGRTYYRSNWYNDYTLSVKSRITVNPDTSKNQFSLQLNSVTPEDTAVYYCVRGVGRFDSWGQGTLVTVSS
VL: DIQMTQSPSTLSASVGDRVIITCRASQSISSWLAWYQQKPGKAPKLLIYKASSLESGVPSRFSGSGSGTEFTLTITSLQPDDFASYYCQEYKTYSIFTFGPGTKVDIK
For the molecule B1, the % Delta F in assay [1] came out at 225 % Delta F; in assay [2] it was 141 % Delta F.

B2: AB1370026 (hybridoma IgG) (antibody, V domains shown)
VH: EVQLVESGGGLVKPGGSLRLSCAASGFTFSSYAMSWVRQAPGKGLEWVSSISSGRSYIYYADSVKGRFTISRDNAKNSLYLKMNSLRDEDTAVYYCAREMQQLALDYWGQGTLVTVSS
VL: DIQMTQSPSSLSASVGDRVTITCRASQGISNFLAWFQQAPGKAPKSLIYAASSLQSGVPSKFSGSGSGTDFTLTISSLQPEDFATYYCQQYNSYPFTFGQGTKLEIK
Take B2: the % Delta F is 271 % Delta F in assay [1] and 214 % Delta F in assay [2].

B3: AB1370083 (hybridoma IgG) (antibody, V domains shown)
VH: EVQLVESGGGLVKPGGSLRLSCAASGFTFSSYNMNWVRQAPGKGLEWVSSISSGSSYIYYADSMKGRFTISRDNAKNSLFLQMNSLRAEDTAVYYCARGMTTLTFDYWGQGTLVTVSS
VL: DIQMTQSPSSLSASVGDRVTITCRASQGISTFLAWFQQKPGKAPKSLIYAASSLQSGVPSKFSGSGSETDFTLTISSLQPEDFATYYCQQYISYPLTFGGGTKVEIK
As to B3, the values for the % Delta F in assay [1] and in assay [2] were 140 % Delta F and 85.2 % Delta F, respectively.

B4: AB1370095 (hybridoma IgG) (antibody, V domains shown)
VH: EVQLVESGGGLVKPGGSLRLSCAASGFTFSSYSMNWVRQAPGKGLEWVSSISSRSSYVYYADSVKGRFTISRDNAKNSLYLQMNSLRAEDTAVYYCARGMTTLTFDYWGQGTLVTVSS
VL: DIQMTQSPSSLSASVGDRVTITCRASQGISSFLAWFQQKPGKAPKSLIYAASSLQSGVPSKFSGSGSGTDFTLTISSLQPEDFATYYCQQYNSYPLTFGGGTKVEIK
B4: the % Delta F in assay [1] amounted to 126 % Delta F; in assay [2], 85.3 % Delta F.

(Values after patent publication US20230295293A1, “BINDING MOLECULES AGAINST FRa” (AstraZeneca AB, priority 2022, published 2023).)
